Reference: paper PMC8134430

Molecular target: Recombinant pseudopilin domain of Naegleria gruberi GspG1 (NgGspG1) lacking the N-terminal hydrophobic part (Naegleria gruberi)
Assay: MST; Monolith NT.115; 10 nM protein labelled with Red-NHS dye NT-647, unlabelled protein titrated to 50 uM; 50 mM HEPES, 50 mM NaCl

Recombinant pseudopilin domain of Naegleria gruberi GspG1 (NgGspG1) lacking the N-terminal hydrophobic part (domain or fragment)
Kd: 0.216 µM
